Assay results published in patent US20120156130A1 (published 2012).

What follows are binders tested against HER3 on DU-145 and PC-3 prostate cancer cells (UniProt P21860 20-1342, limits assumed) (assay: cell-based or functional assay).
Chain of HER3 on DU-145 and PC-3 prostate cancer cells (P21860 20-1342 limits assumed): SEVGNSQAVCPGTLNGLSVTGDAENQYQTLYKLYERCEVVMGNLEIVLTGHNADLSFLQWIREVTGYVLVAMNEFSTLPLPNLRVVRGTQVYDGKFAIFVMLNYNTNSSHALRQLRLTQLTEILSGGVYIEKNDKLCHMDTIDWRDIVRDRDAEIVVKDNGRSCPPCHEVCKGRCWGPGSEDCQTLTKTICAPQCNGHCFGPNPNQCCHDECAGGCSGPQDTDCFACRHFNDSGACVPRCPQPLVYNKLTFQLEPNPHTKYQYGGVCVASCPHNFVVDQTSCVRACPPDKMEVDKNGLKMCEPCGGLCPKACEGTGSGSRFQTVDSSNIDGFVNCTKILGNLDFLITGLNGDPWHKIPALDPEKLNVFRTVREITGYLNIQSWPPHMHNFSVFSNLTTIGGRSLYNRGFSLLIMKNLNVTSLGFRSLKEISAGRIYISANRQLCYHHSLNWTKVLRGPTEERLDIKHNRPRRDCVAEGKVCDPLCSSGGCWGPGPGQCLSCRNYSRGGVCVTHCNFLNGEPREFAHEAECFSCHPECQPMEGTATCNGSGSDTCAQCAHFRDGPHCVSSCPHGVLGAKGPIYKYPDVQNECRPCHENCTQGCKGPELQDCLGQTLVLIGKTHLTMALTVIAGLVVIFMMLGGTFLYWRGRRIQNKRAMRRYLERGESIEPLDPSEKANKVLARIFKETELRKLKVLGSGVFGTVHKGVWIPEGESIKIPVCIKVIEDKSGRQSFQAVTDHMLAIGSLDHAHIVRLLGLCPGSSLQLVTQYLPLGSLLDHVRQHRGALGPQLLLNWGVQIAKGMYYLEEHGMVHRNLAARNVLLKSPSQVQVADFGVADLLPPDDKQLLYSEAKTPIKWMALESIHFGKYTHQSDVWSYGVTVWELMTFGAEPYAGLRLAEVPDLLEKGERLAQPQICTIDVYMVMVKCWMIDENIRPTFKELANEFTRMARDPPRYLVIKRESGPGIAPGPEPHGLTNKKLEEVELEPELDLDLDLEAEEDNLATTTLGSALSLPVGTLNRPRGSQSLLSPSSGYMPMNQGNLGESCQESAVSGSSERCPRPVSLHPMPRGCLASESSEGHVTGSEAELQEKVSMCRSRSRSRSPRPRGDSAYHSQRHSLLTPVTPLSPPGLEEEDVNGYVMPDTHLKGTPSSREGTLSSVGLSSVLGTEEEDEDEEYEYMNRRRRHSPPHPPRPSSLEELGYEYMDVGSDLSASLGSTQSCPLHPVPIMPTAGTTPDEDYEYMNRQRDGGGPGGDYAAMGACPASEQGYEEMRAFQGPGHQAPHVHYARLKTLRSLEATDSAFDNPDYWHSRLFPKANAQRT

Binder	inhibition in colony formation (anchorage independent growth of PC-3 cells, soft agar) [%]
U1-53, anti-HER3 antibody (antibody, V domains shown) VH: EVQLVESGGGLVQPGGSLRLSCAASGFTFSIYSMNWVRQAPGKGLEWVSYISSSSSTIYYADSVKGRFTISRDNAKNSLYLQMNSLRDEDTAVYYCARDRGDFDAFDIWGQGTMVTVSS VL: DIQMTQSPSSLSASVGDRVTITCQASQDITNYLNWYQQKPGKAPKLLIYDASNLETGVPSRFSGSGSGTDFTFTISSLQPEDIATYNCQQCENFPITFGQGTRLEIK	78
U1-59, fully human anti-HER3 monoclonal antibody (antibody, V domains shown) VH: QVQLQQWGAGLLKPSETLSLTCAVYGGSFSGYYWSWIRQPPGKGLEWIGEINHSGSTNYNPSLKSRVTISVETSKNQFSLKLSSVTAADTAVYYCARDKWTWYFDLWGRGTLVTVSS VL: not shown	78
U1-49, anti-HER3 antibody (antibody, V domains shown) VH: not shown VL: DILMTQTPLSLSVTPGQPASISCKSSQSLLLSDGGTYLYWYLQKPGQPPQLLIYEVSNRFSGVPDRFSGSGSGTDFTLKISRVEAEDVGVYYCMQSMQLPITFGQGTRLEIK	52
